Assay results: patent US20200399712A1, “COMPOSITIONS AND METHODS FOR THE DIAGNOSIS AND DETECTION OF TUMORS AND CANCER PROGNOSIS” (priority 2018, published 2020)

Assays:
[1] = system: E2, E4, E5 expression head and neck cell line; assay: Growth of E2, E4, E5 expressing head and neck cell line with FGFR inhibitor; format: cell-based
[2] = system: HPV-16; assay: qPCR on 20 ng DNA from saliva samples of HPV-HNSCC patients
[3] = system: HPV-16 genome; assay: qPCR sensitivity against HPV-16 copy number (known-copy HPV-16 DNA among 10 ng normal human DNA); details: for reaction under 30 copies of HPV-16 genome: among 10 ng normal DNA, triplicate qPCR
[4] = system: HPV16 DNA; assay: CLIA test for HPV16, performance characteristics in plasma
Excerpt: (§1) These primer/probe sets were adapted for development of a CLIA test for HPV16 DNA detection in plasma and salivary rinses (Table 2). Test performance was improved, so that analytical sensitivity in salivary rinse spike in assays ranges from 2.5-5.0 DNA copies/mL with 100% specificity for the three primer/probe sets that are now part of the component assay, resulting in a five-fold improvement in analytic sensitivity that is in the range of sensitivity found in sequence based liquid biopsy methods (FIG. 23, Table 2). Additionally, the assays can be used quantitatively, with measuring ranges between 2.0 log10-7.0 log10 copies/mL.

[5] = system: HPV DNA; assay: CLIA HPV test pilot study on saliva rinse samples from HPV-positive HNSCC patients and non-cancer controls; design: species or system HPV16; HPV16 DNA measured by CLIA HPV test: unit not given here
Procedure: As a final validation, Applicants a small pilot study was performed on a blinded set of saliva rinse samples from 28 patients with HPV-positive HNSCC and 15 salivary rinses from non-cancer controls. […] The sensitivity increased to 96% when all three sets were used (Table 3).

[6] = system: HPV16 DNA; assay: CLIA test for HPV16, performance characteristics in salivary rinse
Excerpt: as §1

[7] = system: HPV-16; assay: qPCR sensitivity against HPV-HNSCC tumor samples diluted among 10 ng normal human DNA
[8] = samples tested 3 times, 10 ng DNA from healthy individual
[9] = first template ('... HPV16', word is an image)
[10] = second template (name is an image)
[11] = tumor DNA dilution, fraction of 32 samples

For AZD4547, the “growth effect induced by E2, E4, E5” value [1] was “reversed the growth effect induced by E2, E4, E5”.

B1: HR E5L2-4: primer/probe set for junction between E5 and L2, SEQ ID NO: 55-57 (same as SEQ ID NO: 4-6) (nucleic acid)
DNA 1: GCAAAACGCACAAAACGTGC
DNA 2: GACATGTACCTGCCTGTTTGC
DNA 3: CGGCTACCCAACTTTATAAAACA
modifications: chemistry not given here
B1 was tested, and the “sensitivity of detection from saliva 20 ng DNA samples” value ([2]; 28 HPV-HNSCC saliva samples) was 46.4%, the “copy numbers detected (standard curve analysis)” value ([2]; compared among 4 primer-probe sets) was “highest” and the “reaction under 30 copies of HPV-16 genome” value [3] was “consistently amplified”. For the same molecule, the “reaction under 30 copies of HPV-16 genome” value ([3]; listed as Max-10) was “react consistently”, the “number of reactions against 10 HPV-16 copies” value [3, 8] was “one” and the “number of reactions under 30 HPV-16 copies” value [3, 8] was 3 reactions. The “Accuracy - Plasma Blind Panel, Negative % Agreement” value [4] was 100%, the “Accuracy - Plasma Blind Panel, Positive % Agreement” value [4] was 100% and the “Accuracy - Plasma Blind Panel, Total % Agreement” value [4] was 100%. For the same molecule, the “Measuring Range - Plasma” value ([4]; first template ('... HPV16')) was 2.0-8.5 log10 log10 copies/mL, the “Limit of Detection - Plasma” value [4, 9] was 1.5 copies/mL and the “Limit of Detection - Plasma” value [4, 10] was 20 copies/mL. The “Measuring Range - Plasma” value [4, 10] was 2.0-6.5 log10 log10 copies/mL, the “sensitivity for the detection of HPV DNA in saliva rinse samples” value ([5]; 28 patients with HPV-positive HNSCC) was 71% and the “HPV16 DNA measured by CLIA HPV test” value ([5]; saliva sample from HPV-HNSCC patient # 1) was 322000. The “HPV16 DNA measured by CLIA HPV test” value ([5]; saliva sample from HPV-HNSCC patient # 2) was 52500, the “HPV16 DNA measured by CLIA HPV test” value ([5]; saliva sample from HPV-HNSCC patient # 3) was 25800 and the “HPV16 DNA measured by CLIA HPV test” value ([5]; saliva sample from HPV-HNSCC patient # 4) was 33200. The “HPV16 DNA measured by CLIA HPV test” value ([5]; saliva sample from HPV-HNSCC patient # 7) was 9670, the “HPV16 DNA measured by CLIA HPV test” value ([5]; saliva sample from HPV-HNSCC patient # 8) was 2510 and the “HPV16 DNA measured by CLIA HPV test” value ([5]; saliva sample from HPV-HNSCC patient # 9) was 1590. The “HPV16 DNA measured by CLIA HPV test” value ([5]; saliva sample from HPV-HNSCC patient # 12) was 86.7, the “HPV16 DNA measured by CLIA HPV test” value ([5]; saliva sample from HPV-HNSCC patient # 13) was 53.1 and the “HPV16 DNA measured by CLIA HPV test” value ([5]; saliva sample from HPV-HNSCC patient # 14) was 31.1. The “HPV16 DNA measured by CLIA HPV test” value ([5]; saliva sample from HPV-HNSCC patient # 15) was 49.7, the “HPV16 DNA measured by CLIA HPV test” value ([5]; saliva sample from HPV-HNSCC patient # 16) was 41.3 and the “HPV16 DNA measured by CLIA HPV test” value ([5]; saliva sample from HPV-HNSCC patient # 17) was 15.8. The “HPV16 DNA measured by CLIA HPV test” value ([5]; saliva sample from HPV-HNSCC patient # 18) was 2.61, the “HPV16 DNA measured by CLIA HPV test” value ([5]; saliva sample from HPV-HNSCC patient # 19) was 26.9 and the “HPV16 DNA measured by CLIA HPV test” value ([5]; saliva sample from HPV-HNSCC patient # 20) was 13.4. The “HPV16 DNA measured by CLIA HPV test” value ([5]; saliva sample from HPV-HNSCC patient # 21) was 6.54, the “HPV16 DNA measured by CLIA HPV test” value ([5]; saliva sample from HPV-HNSCC patient # 22) was 1.16 and the “HPV16 DNA measured by CLIA HPV test” value ([5]; saliva sample from HPV-HNSCC patient # 26) was 2.15. For the same molecule, the “HPV16 DNA measured by CLIA HPV test” value ([5]; saliva sample from HPV-HNSCC patient # 27) was 1.19, the “Measuring Range - Salivary Rinse” value ([6]; first template ('... HPV16')) was 2.0-8.5log10 log10 copies/mL and the “Limit of Detection - Salivary rinse” value [6, 9] was 2 copies/mL. For the same molecule, the “Limit of Detection - Salivary rinse” value [6, 10] was 19 copies/mL, the “Measuring Range - Salivary Rinse” value [6, 10] was 2.0-6.5 log10 log10 copies/mL and the “sensitivity under 100 cells” value ([7]; 32 HPV-HNSCC tumor samples) was 93.8%. For the same molecule, the “sensitivity under single cells” value ([7]; 32 HPV-HNSCC tumor samples, 6.6 pg DNA) was 15.6%, the “sensitivity under 10 cells” value ([7]; 32 HPV-HNSCC tumor samples, 66 pg DNA) was 50.0% and the “Threshold of tumor cell numbers for HPV-16 detection” value (“Threshold of tumor cell numbers” below) ([7]; Sample # 1) was 30.0 tumor cells. For the same molecule, the “Threshold of tumor cell numbers” value ([7]; Sample # 2) was 30.0 tumor cells, the “Threshold of tumor cell numbers” value ([7]; Sample # 3) was 150.0 tumor cells and the “Threshold of tumor cell numbers” value ([7]; Sample # 4) was 60.0 tumor cells. The “Threshold of tumor cell numbers” value ([7]; Sample # 5) was 150.0 tumor cells, the “Threshold of tumor cell numbers” value ([7]; Sample # 6) was 30.0 tumor cells and the “Threshold of tumor cell numbers” value ([7]; Sample # 7) was 30.0 tumor cells. For the same molecule, the “Threshold of tumor cell numbers” value ([7]; Sample # 8) was 15.0 tumor cells, the “Threshold of tumor cell numbers” value ([7]; Sample # 9) was 30.0 tumor cells and the “Threshold of tumor cell numbers” value ([7]; Sample # 10) was 30.0 tumor cells. For the same molecule, the “Threshold of tumor cell numbers” value ([7]; Sample # 11) was 6.0 tumor cells, the “Threshold of tumor cell numbers” value ([7]; Sample # 12) was 30.0 tumor cells and the “Threshold of tumor cell numbers” value ([7]; Sample # 13) was 30.0 tumor cells. For the same molecule, the “Threshold of tumor cell numbers” value ([7]; Sample # 14) was 30.0 tumor cells, the “Threshold of tumor cell numbers” value ([7]; Sample # 15) was 30.0 tumor cells and the “Threshold of tumor cell numbers” value ([7]; Sample # 16) was 6.0 tumor cells. The “Threshold of tumor cell numbers” value ([7]; Sample # 17) was 6.0 tumor cells, the “Threshold of tumor cell numbers” value ([7]; Sample # 18) was 6.0 tumor cells and the “Threshold of tumor cell numbers” value ([7]; Sample # 19) was 1.2 tumor cells. For the same molecule, the “Threshold of tumor cell numbers” value ([7]; Sample # 20) was 1.2 tumor cells, the “Threshold of tumor cell numbers” value ([7]; Sample # 21) was 6.0 tumor cells and the “Threshold of tumor cell numbers” value ([7]; Sample # 22) was 0.3 tumor cells. For the same molecule, the “Threshold of tumor cell numbers” value ([7]; Sample # 23) was 1.2 tumor cells, the “Threshold of tumor cell numbers” value ([7]; Sample # 24) was 1.2 tumor cells and the “Threshold of tumor cell numbers” value ([7]; Sample # 25) was 0.6 tumor cells. For the same molecule, the “Threshold of tumor cell numbers” value ([7]; Sample # 26) was 0.6 tumor cells, the “Threshold of tumor cell numbers” value ([7]; Sample # 27) was 0.6 tumor cells and the “Threshold of tumor cell numbers” value ([7]; Sample # 28) was 1.0 tumor cells. The “Threshold of tumor cell numbers” value ([7]; Sample # 29) was 3.0 tumor cells, the “Threshold of tumor cell numbers” value ([7]; Sample # 30) was 30.0 tumor cells and the “Threshold of tumor cell numbers” value ([7]; Sample # 31) was 0.6 tumor cells. For the same molecule, the “Threshold of tumor cell numbers” value ([7]; Sample # 32) was 30.0 tumor cells, the “Sensitivity, 1 cell” value [7, 11] was 0.156 and the “Sensitivity, 3 cells” value [7, 11] was 0.313. The “Sensitivity, 10 cells” value [7, 11] was 0.500, the “Sensitivity, 30 cells” value [7, 11] was 0.844 and the “Sensitivity, 100 cells” value [7, 11] was 0.938.
